Assay results taken from the supplement of paper PMC12764529.
± gives the half width of the 95% confidence interval.

Columns and labels:
[1] = folding stability dG unfold from trypsin proteolysis; higher = more stable
Method in brief: (§1)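 Unfolding free energy was derived, per protease or combined, against a sequence-predicted unfolded-state K50 and a shared folded-state K50, starting from K50 inferred by Bayesian fitting of sequencing counts. Digestion with trypsin and chymotrypsin was carried out on designed mini-proteins under 80 residues without cysteine in a PA-tagged cDNA display construct. Only designs with AlphaFold2 dimer inter-PAE above 15 were kept.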

[2] = folding stability dG unfold from chymotrypsin proteolysis; higher = more stable
Method in brief: as §1

[3] = folding stability dG unfold (combined trypsin and chymotrypsin); higher = more stable
Method in brief: as §1

Sequence | folding stability dG unfold [1] | folding stability dG unfold [2] | folding stability dG unfold [3]
SAGGSAGGSAGSSILSVVEEDPETGLRVVLSPVSDVPVRIVTKRIPEKEEIKVLEVERLPSAGGSAGGSAGG [r11_1066_JUSTAS] | -0.603 ± 0.38 kcal/mol | -0.758 ± 0.37 kcal/mol | -0.746 ± 0.43 kcal/mol
SAGGSAGGSAGSSMTTVTVTITDTGSGKTTTTELDVPVSEVQAVIDELSPSPTLTITVVQSAGGSAGGSAGG [r17_50_JUSTAS] | 1.84 ± 0.049 kcal/mol | 1.51 ± 0.028 kcal/mol | 1.64 ± 0.043 kcal/mol
SAGGSAGGSAGSSSISRETFDPETGLRYVYDPETDTITVIDLSNNKVVKTTPVGPEELERSAGGSAGGSAGG [r17_271_JUSTAS] | 0.244 ± 0.068 kcal/mol | 1.95 ± 0.022 kcal/mol | 1.55 ± 0.07 kcal/mol
SAGGSAGGSAGSVIVTSTTSTLPNGTVVTNETVSDPSNPGVTTKKTSTTYPDGSVTTTESSAGGSAGGSAGG [r11_483_JUSTAS] | 0.213 ± 0.043 kcal/mol | 1.73 ± 0.047 kcal/mol | 1.36 ± 0.057 kcal/mol
SAGGSAGGSAGSVTITRDYPTPDGTRTTVTITFPSLERSPSVKYKLVSVSPDGNYVLSPESAGGSAGGSAGG [r11_733_JUSTAS] | 2.11 ± 0.18 kcal/mol | 1.61 ± 0.17 kcal/mol | 1.91 ± 0.28 kcal/mol
SAGGSAGGSAGSVTLPKNQVGVSVESYEVTLPDETGESVTRYKITLRFAETGLSAEFYAGSAGGSAGGSAGG [r17_266_TrMRF] | 1.2 ± 0.047 kcal/mol | 1.34 ± 0.25 kcal/mol | 1.26 ± 0.22 kcal/mol
SAGGSAGGSAGSWELSYRFPGVQIEVTYSPEWGFITEIKVQPLPPPPPPSPEDAKEMKEKSAGGSAGGSAGG [r11_320_TrROS] | 0.799 ± 0.083 kcal/mol | 2.56 ± 0.081 kcal/mol | 2.02 ± 0.12 kcal/mol
SAGGSAGGSAGSYPIEYIPAPPDRLWLIDPKNGKIYEIYLDPERGEYSFEEIKEFPLGLESAGGSAGGSAGG [r11_352_JUSTAS] | 1.34 ± 0.045 kcal/mol | 1.66 ± 0.073 kcal/mol | 1.57 ± 0.1 kcal/mol
SAGGSAGGSAGTEIKIPPEFPDLPVKVYPIEVTLLGKGKPKKVILNVATTPDAIIAVDPESAGGSAGGSAGG [r11_21_TrMRF] | -0.478 ± 0.1 kcal/mol | -0.61 ± 0.28 kcal/mol | -0.623 ± 0.2 kcal/mol
SAGGSAGGSAGTIVITQSPDGTWRAYYEDGTAEEFDSIDDLKKALEEHYPDAKTVIFKPASAGGSAGGSAGG [r11_806_TrMRF] | 3.33 ± 0.15 kcal/mol | 2.99 ± 0.17 kcal/mol | 3.15 ± 0.17 kcal/mol
SAGGSAGGSAGTLTLRVQLFDEDGRLVAEREVELEVELPPPPPVELEFDEETRELRRRRLSAGGSAGGSAGG [r17_348_TrROS_Hall] | 1.12 ± 0.18 kcal/mol | 0.811 ± 0.22 kcal/mol | 0.965 ± 0.24 kcal/mol
SAGGSAGGSAGVIPLPGGEEVEYFPEKGEATVRLPDGTVYKVEITKAPDGSLSVTVTPAGSAGGSAGGSAGG [r11_331_JUSTAS] | 1.79 ± 0.052 kcal/mol | 1.1 ± 0.035 kcal/mol | 1.45 ± 0.052 kcal/mol
SAGGSAGGSAGVIRVKLKDGPVREIPLEDVPPELLNTPELLAAIEALAREAGYEIESIEASAGGSAGGSAGG [r11_467_TrMRF] | 1.7 ± 0.038 kcal/mol | 2.22 ± 0.029 kcal/mol | 2.03 ± 0.056 kcal/mol
SAGGSAGGSAGVITVTKDPKTGKYTVTIETPSGPATTVEVSSEEEAKELAKKLGYDIDALSAGGSAGGSAGG [r11_1049_JUSTAS] | 3.89 ± 0.14 kcal/mol | 3.78 ± 0.087 kcal/mol | 3.82 ± 0.098 kcal/mol
SAGGSAGGSAGVIVTPEGDRIVTYDPNTGSVTVTPLDAAGNPLTTTVVAPNGPVVTVTELSAGGSAGGSAGG [r17_385_JUSTAS] | 1.66 ± 0.055 kcal/mol | 0.871 ± 0.018 kcal/mol | 1.22 ± 0.034 kcal/mol
SAGGSAGGSAGVPDNAKIRLAFEFDGYIVLIEATPGTGFIKNIDKVEVFPVIPNTGEVTGSAGGSAGGSAGG [r11_66_TrMRF] | 1.53 ± 0.07 kcal/mol | 1.85 ± 0.1 kcal/mol | 1.79 ± 0.13 kcal/mol
SAGGSAGGSAGVPEGEEYLFTVKVTLTFEPVTVKDENGEEHEIDEVTITVTVTVLVKAEDSAGGSAGGSAGG [r11_907_TrROS_Hall] | 2.33 ± 0.35 kcal/mol | 3.24 ± 0.12 kcal/mol | 2.93 ± 0.24 kcal/mol
SAGGSAGGSAGVPSLEEVLAELEANPNSDAVVELPDGTRVRIRVERLPGGELRVEREEVLSAGGSAGGSAGG [r11_300_JUSTAS] | 1.21 ± 0.029 kcal/mol | 1.78 ± 0.049 kcal/mol | 1.6 ± 0.078 kcal/mol

Sequence | folding stability dG unfold [1] | folding stability dG unfold [2] | folding stability dG unfold [3]
SAGGSAGGSAGVRIDKDGWTIKWYNPDGEKRTFTVDSPEEAKDFLEENFPPGWRVEIEPPSAGGSAGGSAGG [r11_983_TrROS] | 1.11 ± 0.046 kcal/mol | 1.38 ± 0.056 kcal/mol | 1.33 ± 0.13 kcal/mol
SAGGSAGGSAGVTIPDPGEEELRKALEAGREVRVAFPESGKVVLVEGPGPELGEEPEPAASAGGSAGGSAGG [r11_94_JUSTAS] | -0.619 ± 0.093 kcal/mol | 0.589 ± 0.012 kcal/mol | 0.275 ± 0.075 kcal/mol
SAGGSAGGSAGWGLIITIEVEGEYDPANGQWSLNIEIEIQPIRIPPPKEPPPDDNPNNDDSAGGSAGGSAGG [r17_454_TrROS] | 2.27 ± 0.23 kcal/mol | 4.08 ± 0.15 kcal/mol | 3.86 ± 0.32 kcal/mol
SAGGSAGGSAGWYFPIDELQKEHPNMSPETIADFFQKDGYKIEVEPVGPEPWVKIEPPEKSAGGSAGGSAGG [r11_707_TrROS] | 0.658 ± 0.07 kcal/mol | -0.513 ± 0.67 kcal/mol | 0.242 ± 0.12 kcal/mol
SAGGSAGGSAGYESVVNELKRKGYKVEVKKTPDGTYVVTVTKKDGTVETITLGPEGGKISSAGGSAGGSAGG [r17_503_JUSTAS] | 2.67 ± 0.14 kcal/mol | 4.36 ± 0.12 kcal/mol | 4.16 ± 0.15 kcal/mol
SAGGSAGGSAGYIKTEHEVTVMEKDPDGGTKMIEVPVKITIPIIPIPPEALEKNPEALKKFLSAGGSAGGSA [r18_114_TrROS] | 0.461 ± 0.19 kcal/mol | 0.352 ± 0.14 kcal/mol | 0.514 ± 0.22 kcal/mol
SAGGSAGGSAGYISIMIFFVLPDGYAIMVKYTFELPPNGNPKIENIEIHVMKLPPGEPIFSAGGSAGGSAGG [r11_517_TrROS] | 4.22 ± 0.3 kcal/mol | 5.35 ± 0.17 kcal/mol | 5.13 ± 0.3 kcal/mol
SAGGSAGGSAGYLELKISFFDPDGQILASITIWIEIVIPPPPKMEYERDPEDGNNKWEHDSAGGSAGGSAGG [r17_348_TrROS] | 2.49 ± 0.23 kcal/mol | 2.19 ± 0.056 kcal/mol | 2.26 ± 0.17 kcal/mol
SAGGSAGGSAIKPGETIPIKIGNFPIKITVYGDWVEITFPNGRKIRFRVAVDDGKLEIDIYFSAGGSAGGSA [r18_172_TrROS] | 4.07 ± 0.24 kcal/mol | 4.31 ± 0.14 kcal/mol | 4.18 ± 0.14 kcal/mol
SAGGSAGGSAIWIPSPEAADEIMDILAKKNGYKINIEPIGQDEDGGMVYEIEIVPPGQPLTSAGGSAGGSAG [r3_59_TrROS] | 0.152 ± 0.066 kcal/mol | 0.397 ± 0.16 kcal/mol | 0.484 ± 0.22 kcal/mol
SAGGSAGGSAKAVIFFEGASIEDVVEAVKARPEEEVLVVFPDGRVLLLTKDDVVVVVPAPFSAGGSAGGSAG [r3_269_TrMRF] | 1.19 ± 0.052 kcal/mol | 1.22 ± 0.11 kcal/mol | 1.23 ± 0.093 kcal/mol
SAGGSAGGSAKEIKLKITKVTFTENEDGTLTATFELEDGYRVTIKFNKKTNKVEIKIEPLPSAGGSAGGSAG [r3_438_TrROS_Hall] | 2.47 ± 0.091 kcal/mol | 4.12 ± 0.082 kcal/mol | 3.74 ± 0.15 kcal/mol
SAGGSAGGSAKEKYILLKVKPGQKVEIEYENGEKKEVEVLEDGYLLIKVKEKNAKIKIKIKSAGGSAGGSAG [r3_334_TrROS_Hall] | 1.85 ± 0.17 kcal/mol | 2.82 ± 0.051 kcal/mol | 2.76 ± 0.32 kcal/mol
SAGGSAGGSAKEVIIEIKVPPNMTEDEIKELLKKKFKGKKVEIKIEKKKNKNGTLIYKVEVKSAGGSAGGSA [r18_360_TrROS_Hall] | 2.6 ± 0.15 kcal/mol | 3.13 ± 0.12 kcal/mol | 2.73 ± 0.34 kcal/mol
SAGGSAGGSAKIEVEVTPLPGNKVLKIIKFENGEYIIEVFYFDPETGKIYSESEIISEEELLSAGGSAGGSA [r18_325_TrMRF] | 1.3 ± 0.039 kcal/mol | 2.36 ± 0.044 kcal/mol | 2.05 ± 0.13 kcal/mol
SAGGSAGGSAKIIIIEEDPEEAIRRVEELFGPGARIEPVRVVRVGDKVYVAVGIDIPASLASAGGSAGGSAG [r3_87_TrMRF] | 1.094 ± 0.0092 kcal/mol | 0.9 ± 0.017 kcal/mol | 0.977 ± 0.044 kcal/mol
SAGGSAGGSAKITIELDGITEVEFDEETGELYLRIEVDGKLYEIRITEDGTIEIREVPLEDSAGGSAGGSAG [r3_62_TrROS_Hall] | 1.86 ± 0.097 kcal/mol | 3.63 ± 0.11 kcal/mol | 3.13 ± 0.17 kcal/mol
SAGGSAGGSAKITITKEDIVSYDEENKTFTIKLKDGSTIKIRVEKVKDGKIKVYDEDTGKPISAGGSAGGSA [r18_418_TrROS_Hall] | 1.27 ± 0.063 kcal/mol | 1.79 ± 0.048 kcal/mol | 1.65 ± 0.18 kcal/mol
